Test results published in the DeepSol protein solubility set.

Test: soluble on expression in E. coli; label from the status in PepcDB or PDB records

Soluble on expression in E. coli, not soluble:
MGSDKIHHHHHHKDDDNVETGAFDPSKPVAISDFTPKEGGAYQKLLIYGENFGTDVSKVKVKIGGKDAIVINVKSTYVYCFVPSGAFSGEIEITVGEGENAVTTTASTTFSYEKKMVVGTLCGYRNNRDDQGWRDGPFDGPEGVKCCGFSDNGRLAFDPLNKDHLYICYDGHKAIQLIDLKNRMLSSPLNINTIPTNRIRSIAFNKKIEGYADEAEYMIVAIDYDGKGDESPSVYIIKRNADGTFDDRSDIQLIAAYKQCNGATIHPINGELYFNSYEKGQVFRLDLVDYFKTIKNGGSWDPIVKNNPNTFKQLFTIADPSWEFQIFIHPTGKYAYFGVINNHYFMRSDYDEIKKEFITPYNFVGGYKQSGYRDDVGTEARMNNPCQGVFVKNPDYTGEEEYDFYFVDRLNFCVRKVTPEGIVSTYAGRGASTSLADGNQWGTDDGDLREVARFRDVSGLVYDDVKEMFYVHDQVGHTIRTISMEQEENVAGDENIPEDESTVESNE
MGSDKIHHHHHHKITQDDLKQLDGNLTPLGAERAANKDGTIPAWTGKWLGAPTGVAYKAGERYQDPYADEKPLYVITAQNMAQYDKQLTDGLKALFKKYPETFKMPIYATHRDFRYDDGTYKAIRTYAPQIEMLGEGNGVKNSPPTLPYPIPKTGLELLWNLRFASAIESERAVYDQAVVYADGKVAWGKVKYEIWSPKDGQHFDAKAPMNARAFYRMYTELPLRDRGSIITGYTVYDSPEPDSNRAWSYNPGTRRVRQAPEYGYDQPFGPGGFRTVDDDHFFNGSPERYDWKIVGKRELYVPYNNYRMSSPSIKYQDLLTKGHADPSNMRYELHRVWVLEATLKQGFRHQYAKRIIYIDEDSWYGVLADNYDSRGQLWRTNIQANVYAYDAKRFYPTAVFFHDLISGAYLADRLTNEGQPPRLNSEPKYVEAYFSPDAARGAGN
MGSDKIHHHHHHKSTFKQELAVGASFGLNFSSVSFAPKVPTKMKLGFNGGATIRWNTEPNLGIQAELNFTQHGWEEKFEEKPQYKYSRTVNYMELPFLTHIHFGSKRVRVFVNLGPKIGYALSESTESNLNGENPNANRPDEQHTLEVQKKFDWGLCGGPGIELRTGIGSFLLEGRYYYALGDMFNSRKGDTFSKSSSQIISAKLTYLIPIFSK
MGSDKIHHHHHHLAKAELTQIPVSQMVIGLTVKLPLSWTNHPFFRSKVKLEQQVQIEMIKGLDVSFVYVIEGHDLLPHVSEPVEIEQPEEVVEQEIDYRPLAKKSMRISQQRFVKSVNDSRTVFGKIVSDPEGAYREAATLVEDLVDHLYESETPQLTIVGSGEIDVSVTQHGISVAVLSMMIAHSLVLSKKDVRDIALGSLFHDIGKLKVPDAIRRKKRGDLSDHEINFLKMHPNFGYDMLNRTGLFPEAMLDIVLHHHEFIDGSGFPNQLTEAKILLTTQVVSLANDYETLLNLHRTPQIALGILFKTHSGKHADNLIAVLVKILGIYPPGTIVRLTDDSIAKVMMTTADVKQPHVWSCNLSGGEPSFRFLINEDVQVQEVMKLDELTDGAVKTLQANNPISFYFNNFDH
MGSDKIHHHHHHLEKAALILEGGALRSFFTSAVLDYFLEKQMDFEYIHGVSAGTMAAMNYISKQKRRSADVNLHFLHDKRYIGFNNLIRNGGIFNLDFLFSPECYDYSPFDYKAYNESKQIFEITATNVLTGKADIFRKTDTDGQEEAVKASASMPLVSDIRVVNHQPYLDGGIADSIPFRRAQELGYEKIVVVLTRDISYRKPENSRAMNRLVKFRYRDFPRFVQAFADRPQQYNRSLAEIERLEREGKIFVIRPQEPVSVSRVERDDKKLMALYEKGTEVIQNQFADLQKYLAQ
MGSDKIHHHHHHLKKQAVVIGAGLAGMSAAIRLAGDGYEVTMLEQNGNVGGKLNQRSGQGFTFDTGPSILTMPWVLEQLFTSVHRRLDDYLEIERIEPQWRTFFEDGTQLDVKGDLPGMLEEFKKVSDQADFVELFSYSKKMYDLCLDSFYKYSLEDLKDLKKYHTMSELLKMDPLNTVASGTKKHLNNKYLEQLFNYMVMYVGSNPYEAPAVFNQMIYVQMGLGIYYVKGGMYNIARAMKTVLDELRVTIHVNTPVARVVTEGKRAIGVETTDGTFYPADVVVSNLEVIPTYQHLISEKKGPKQAKKLNQSFVPSVSGLVLLLGVNREYKDLKHHNFFFSDDPEREFAQMFKDGVPPEDPTIYVGVSSKSDASQAPEGKDNLFVLTHVPPLTKQDGKTDWDAYREVVLDKLERMGLTDLRESIEFEYRFTPEDLKSLYGPNGGSIYGVAADRKKNGGFKIPSKSDLYEGLYFVGGSTHPGGGVPMVTLSGQLTADLIQKHEKVKA
MGSDKIHHHHHHLKNELAVIDIGSNSIRYVIFHPIDSGRYIEKINVKVVARLSAHIDAEGALDSVGIRLLCETLQRFHEIGITHHVEETICVATAAIRNASNRQDIVHAVEQETPFTMRVLSDEQEAYYGYFAIINSTFLTDGYSVDIGGGSMEVTLIENREMIAYHSFPFGAVTLTRQFLSGETMTSGEQKKLIKFLREQFDEIPWLKNKKLPLIGVGGSARNFVRIHQSTLDYPLHGIHQYQVRSKELGKLIDELEDKAPKQLMKVEGLSKDRVDIFLPALIAIHELALHIEAEQFVMSNYGLREGLVYEYDLHEQEQRRIENVREESLYQLESDYKVNRDRMNYLGTIAKSIYRQLVTLDIIPNRAADLRLLDSASRLLYCGQYINPDTRSNQTFYLLTNTDLKGMTHKDRLALALVSSYSSSKRIQQLLKPFKDWFTDKSIERFDLLGSILKLTEALDVTERRAVDSLEIALEKDKKDLRIILDTGDHDYGFEVEKAEKQKKHLERIIDRSIQFDNKGGGLT
MGSDKIHHHHHHLNNQIKIFEGNKIRSIWDNEKEEWYFSVVDVVAVLTESKDPQVYWRVLKKRLKEEGNKTVTNCNALKMKAADGKMRLTDVADMQGIFRIIQSVPSPKAEPFKMWLAEVGKERIDEIIDPELTIDRALETYLKKGYSREWINQRLQAIQVRKELTDTWQDHGVEKGKEYAILTNEITKAWSGMTTREYKDLKGLKKENLRDNMSTLELVLNMLAEATTTELTNATHPQGLEENKKVAKRGGSIAGNARKEIEQETGKSVITSKNAIDFVKLIEDVSSKEFEDKDKKDKD
MGSDKIHHHHHHLRIEQKLWRENTGWSDLSPQVDGLMPQLLIVFGTRKYLQEEVRFEEIKGFYPGAHIFGCSTAGEICATNVFEDALAITALEFEHTRIESRQIHLSQVQNSFQAGEYLASSLTHDDLSHVLVLSDGLHVNGSELLQGLTSSLPPGIAITGGMAGDGVSFEETLVFLDAPPTPDTIAVLGFYGNHLRVGYGSMGGFDPFGPKRLITRSAANVLYEMDGRSALELYKKYLGEHAEGLPATGVFFPLSISGEEVAESLVRTILAVNEEEQSLTFGGDVPTGAYARMMKANLDRLIDGAVTAAESILSVVNNASPELAILISCFGRRSILKQRTEEEVEAVSDVFGSGCMLTGFYSYGEISPFKPGEKPEFHNQTMTITTFREV
MGSDKIHHHHHHLTRREVVGLKLGDLMPRDLLKQELFVQDLKSHINDNVEIILKIRSKKLQETKDSKKFLIMTLEDRTGTVRAVDWYNAELNDQRLKEGNVVRVKGRVVFFENRIQINVDNDYGAIKILKSDEYDYTKFVAQSKKDLEILKKKLFVLLDQIKDQHYKKLLKAFFENKEFSEKFFRSPAGMRVHHAYIGGLLEHSVTVAEICKEISKYYSLDRDLLITGALLHDVGKVEEYRITESGIEVTTEGELKGHIAIGAAMVREMAKKLSIPEHKILELEHIILSHHGELEWGSPVVPKTIEALIVHHVENLDSKIARFIEVMESSESNQGWTEYDRNLGRRIFLRGGGTIVSLTV
MGSDKIHHHHHHLTVPKKLLLSDLLKHNVRCENGIDHGPVITPWMHPPVHRILGFISRPSNLRLEREVWRLDQLKGINQQEVYVKGVCSVSDEQTLDRFPTLMNANVFNKSGQKIGLIADFLFEPKKGNIQYYLVSRSNPLIPGTSRWLLSIDQIIDKQPGSISCDIETFEDLPIQKASLKEEFLSKSRKWKAQFQDLTYNASDKLEGWIDDQISESDNDSYEMLNDDPSYDDWIDNLDIDSSEEFNRMNKSKKNTNSTNERDLDPWI
MGSDKIHHHHHHLYSFTIASDTIELVKSLHYSILVLNMEAEEMFSKKQDPFAVKLSEIAGHLQRTSQFFVDFKINGIADVKEFAHKVKDFETAGDDLMHQLIIDLNNAFITPIDREDLLALANSLDDVLDGFEECSAIFEIYNIVQADEHMIRFVDEIHIAVNELALSMDLLVARKLQPMREHVIKVKEQETICDNLRRKSIKALFATETDPIKIIQYKEIYESLESIADYCQDAANVIETIIMKNA
MGSDKIHHHHHHMAAEALADEHLVMLAYRDPAIGDHIDVQKVRLPFRWEFDLPTIFSLVRLVWRKKIDILIPTKRKDYVLAGLVCRLTGAANILRLGIDRPLKNTPVQRLIYGWLADGIIVNADKIRRTLALSPWIDPDKVRVIYNGIDREKLEPDSVLPCKKPFSFTIGAAGALIPRKGFDYLIRSFARFSAGSNEITDAGLVIAGTGPERESLEKLAADLGISGRVRFTGHLTNPYPVMRACDLFVSASTSEGLANVLLESMALHCVPVSTLSGGADELIEDGRNGFLVRYGDEKRLAEIFSELYKNPGKIASVAANAHQTIMQRFSIELMRKDLFEFCSEINDRKKGT
MGSDKIHHHHHHMAEGSSSSSLTRLMSILDIFTETRPEWSSDDMMTELGYPRPTLYRYLKVLTDAGMLASNGHGIYTLGPKVVEMDHLLRLSDRLVAIGRPVVAQLTEQYACTAFLVRWYRNRLLCMHSETSLEAPLSSYPRGRVMPMNRGAIARTILAHLQSRKARKIIESFAPEGPEDARKAYIAEQAAALRSVRRNGYAIAFGEVTPGVVGVASPIFDEAAEPAGALCMTMRQEDCPHELRTLITQAVPAAANSITVTLRQSRHTGTDHTHLPLQEEVKDR
MGSDKIHHHHHHMAFIQPDLQFNPDTLDNLVIGIAADMGEHDSGAHHHSKAQLLYASAGCMRFYLADTQVVLPPTRAAWLPAGVVHHVTMRNVAAYRSLYFEPETVASLPSRVTIFHVNPLLKALIDTMSFWPWDKPRQSQHNAFSLLCEELENATAENLVLPLPQDKRLKTWLKQLQQKKQPANLKKMAIEIGASERTISRIFNAQTGMAYQAWRQQWRLLSAIEQLAAGASVAQVGFNLQFSSDSAFISFFKQYTGTTPAQYFKSPSV
MGSDKIHHHHHHMAFTHTVGQHRHVFADLRTLLAKASPARSGDYLAGIAAASEEERMAARMALAAVPLTQFLSEALVPYEDDEVTRLIVDSHDAVAFAEIASLTVGDFRNWLLLHETDSTTLATVARGITPEMAAAVSKLMRNQDLIAVARKCHVVTRFRSTVGLPGRLSVRLQPNHPTDDPKGIAASIIDGLMYGCGDATIGVNPVSDSLGAIVSLLRMIDDLRCRYDIPTQSCVLTHVTHTLRAMEQGAPVDLVFQSVAGSERANAAFGISLSLLAEAHDAAQALARGTVGDNVMYFETGQGSALSANAHHGVDQQTMEARAYAVARRFSPLLVNTVVGFIGPEYLYDGKQIIRAGLEDHFCGKLLGVPMGCDVCYTNHAEADQDDMDTLLTLFGVAGINFIMGVPGADDIMLNYQSTSFHDALYLREVLGLRPAPEFEAWLQRMGIADGSGRLLEPAERQPLLELAHTL
